Residue numbers refer to the chain shown, from its start.

In this assay the target is T1, human GPC3 (human, UniProt P51654 25-563).
T1 construct: range 25-563; soluble analyte; also called soluble human GPC3; glypican 3
In words: SPR. In general terms: Surface plasmon resonance follows binding to a sensor surface in real time, without labels.

T1 sequence (P51654 25-563 limits assumed): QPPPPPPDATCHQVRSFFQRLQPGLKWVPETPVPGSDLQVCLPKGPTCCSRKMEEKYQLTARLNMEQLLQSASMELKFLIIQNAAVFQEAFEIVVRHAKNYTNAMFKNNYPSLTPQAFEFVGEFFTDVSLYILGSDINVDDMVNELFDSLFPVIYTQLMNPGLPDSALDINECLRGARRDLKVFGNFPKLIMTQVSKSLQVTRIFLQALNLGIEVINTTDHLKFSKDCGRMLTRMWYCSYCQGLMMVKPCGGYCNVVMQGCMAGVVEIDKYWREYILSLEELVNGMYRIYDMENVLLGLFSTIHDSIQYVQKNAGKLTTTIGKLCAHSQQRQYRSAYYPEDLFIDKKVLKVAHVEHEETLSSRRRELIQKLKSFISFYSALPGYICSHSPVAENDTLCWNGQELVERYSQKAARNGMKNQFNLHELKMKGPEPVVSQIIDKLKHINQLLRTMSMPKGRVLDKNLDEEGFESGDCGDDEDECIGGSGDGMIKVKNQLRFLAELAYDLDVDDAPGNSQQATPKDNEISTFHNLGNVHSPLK

B1: GCH054-G1dh/none-Hi-Kn010G3/TR01L019-k0 (antibody, V domains shown)
VH: QVQLVQSGAEVKKPGASVTVSCKASGYTFTDYEMHWIRQPPGEGLEWIGAIDGETPDTAYSEKFKGRVTLTADKSTSTAYMELSSLTSEDTAVYYCTRFYSYTYWGQGTLVTVSS
VL: DIVMTQSPLSLPVTPGEPASISCQASESPVHSNRNTYLHWYLQKPGQSPQLLIYKVSNRFSGVPDRFSGSGSGTDFTLKISRVEAEDVGVYYCYQGTQVPYTFGQGTKLEIK
notes: one-arm
For orientation: Kd means the free concentration of one partner at which half of the binding sites on the other are occupied at equilibrium, for simple one-to-one binding. Lower therefore signals higher affinity. The molecule B1 returned a Kd of 0.871 nM.

B2: H0610-G1dh/none-Hi-Kn010G3/L0038-k0 (antibody, V domains shown)
VH: B1 VH with T19K, E43Q, E54K, E62Q
VL: B1 VL with Q24R, A25S, E27Q, P29L, S32F, L42Q, S48A, Q50R, Y94G
notes: one-arm
For the molecule B2, the equilibrium dissociation constant (Kd) came to 2.75 nM.

B3: H0610-G1dh/none-Hi-Kn010G3/L0014-k0 (antibody, V domains shown)
VH: B1 VH with T19K, E43Q, E54K, E62Q
VL: B1 VL with Q24R, A25S, E27Q, P29M, L42Q, S48A, Q50R, Y94G
notes: one-arm
The molecule B3 registered a Kd of 1.82 nM.

B4: H0610-G1dh/none-Hi-Kn010G3/L0013-k0 (antibody, V domains shown)
VH: B1 VH with T19K, E43Q, E54K, E62Q
VL: B1 VL with Q24R, A25S, E27Q, P29I, L42Q, S48A, Q50R, Y94G
notes: one-arm
In the case of B4, the dissociation constant Kd is 3.35 nM.

B5: H0610-G1dh/none-Hi-Kn010G3/L0016-k0 (antibody, V domains shown)
VH: B1 VH with T19K, E43Q, E54K, E62Q
VL: B1 VL with Q24R, A25S, E27Q, P29V, L42Q, S48A, Q50R, Y94G
notes: one-arm
On to B5, for which the dissociation constant (Kd) came out at 4.44 nM.

B6: GCH065-G1dh/none-Hi-Kn010G3/L0262-k0 (antibody, V domains shown)
VH: B1 VH with E54P
VL: B1 VL with Q24R, A25S, E27Q, S28P, L42Q, S48A, Q50R, Y94A
notes: one-arm
B6 had a Kd of 0.0118 nM.

B7: H0610-G1dh/none-Hi-Kn010G3/L0032-k0 (antibody, V domains shown)
VH: B1 VH with T19K, E43Q, E54K, E62Q
VL: B1 VL with Q24R, A25S, E27Q, P29L, H31R, L42Q, S48A, Q50R, Y94G
notes: one-arm
B7: binding was put at a Kd of 3.72 nM.

B8: GCH094-G1dh/none-Hi-Kn010G3/L0272-k0 (antibody, V domains shown)
VH: B1 VH with I37V, P40A, I48M
VL: B1 VL with Q24R, A25S, E27Q, S28P, P29L, N35Q, L42Q, S48A, Q50R, Y94G
notes: one-arm
B8 came in with a Kd of 2.1 nM.

B9: GCH056-G1dh/none-Hi-Kn010G3/L0215-k0 (antibody, V domains shown)
VH: B1 VH with E62Q, K65E
VL: B1 VL with Q24R, A25S, E27Q, S28P, L38I, L42Q, S48A, Q50R, Y94G
notes: one-arm
B9 returned a dissociation constant (Kd) of 1.59 nM.

B10: GCH094-G1dh/none-Hi-Kn010G3/L0246-k0 (antibody, V domains shown)
VH: B1 VH with I37V, P40A, I48M
VL: B1 VL with Q24R, A25S, E27Q, L38I, H39Q, L42Q, S48A, Q50R, Y94S
notes: one-arm
B10 had a Kd of 0.00412 nM.

B11: GCH055-G1dh/none-Hi-Kn010G3/L0200-k0 (antibody, V domains shown)
VH: B1 VH with E62D
VL: B1 VL with Q24R, A25P, E27Q, L42Q, S48A, Q50R, Y94G
notes: one-arm
With B11, the Kd was found to be 1.13 nM.

B12: H0610-G1dh/none-Hi-Kn010G3/L0046-k0 (antibody, V domains shown)
VH: B1 VH with T19K, E43Q, E54K, E62Q
VL: B1 VL with Q24R, A25S, E27Q, P29L, S32V, L42Q, S48A, Q50R, Y94G
notes: one-arm
In turn, B12 yielded a Kd of 5.45 nM.

B13: GCH094-G1dh/none-Hi-Kn010G3/L0271-k0 (antibody, V domains shown)
VH: B1 VH with I37V, P40A, I48M
VL: B1 VL with Q24R, A25S, E27Q, S28P, N35Q, L42Q, S48A, Q50R, Y94G
notes: one-arm
In turn, B13 registered a Kd of 0.692 nM.

B14: GCH094-G1dh/none-Hi-Kn010G3/L0270-k0 (antibody, V domains shown)
VH: B1 VH with I37V, P40A, I48M
VL: B1 VL with Q24R, A25S, E27Q, P29L, N35Q, L42Q, S48A, Q50R, Y94G
notes: one-arm
The molecule B14 showed an equilibrium dissociation constant (Kd) of 3.6 nM.

B15: H0610-G1dh/none-Hi-Kn010G3/L0041-k0 (antibody, V domains shown)
VH: B1 VH with T19K, E43Q, E54K, E62Q
VL: B1 VL with Q24R, A25S, E27Q, P29L, S32L, L42Q, S48A, Q50R, Y94G
notes: one-arm
Molecule B15 showed an equilibrium dissociation constant (Kd) of 4.85 nM.

B16: GCH060-G1dh/none-Hi-Kn010G3/L0200-k0 (antibody, V domains shown)
VH: B1 VH with T30E, E62Q, K65E, S88E
VL: B1 VL with Q24R, A25P, E27Q, L42Q, S48A, Q50R, Y94G
notes: one-arm
B16 gave a Kd of 1.34 nM.

B17: H0610-G1dh/none-Hi-Kn010G3/L0006-k0 (antibody, V domains shown)
VH: B1 VH with T19K, E43Q, E54K, E62Q
VL: B1 VL with Q24R, A25P, E27Q, P29L, L42Q, S48A, Q50R, Y94G
notes: one-arm
On to B17, for which the affinity, expressed as Kd, was 3.04 nM.

B18: H0610-G1dh/none-Hi-Kn010G3/L0012-k0 (antibody, V domains shown)
VH: B1 VH with T19K, E43Q, E54K, E62Q
VL: B1 VL with Q24R, A25S, E27Q, P29F, L42Q, S48A, Q50R, Y94G
notes: one-arm
As to B18, the Kd amounted to 1.55 nM.

B19: GCH057-G1dh/none-Hi-Kn010G3/L0215-k0 (antibody, V domains shown)
VH: B1 VH with K65E
VL: B1 VL with Q24R, A25S, E27Q, S28P, L38I, L42Q, S48A, Q50R, Y94G
notes: one-arm
In turn, B19 had a Kd of 1.83 nM.

B20: GCH065-G1dh/none-Hi-Kn010G3/L0272-k0 (antibody, V domains shown)
VH: B1 VH with E54P
VL: B1 VL with Q24R, A25S, E27Q, S28P, P29L, N35Q, L42Q, S48A, Q50R, Y94G
notes: one-arm
B20 gave a dissociation constant (Kd) of 0.393 nM.

B21: H0610-G1dh/none-Hi-Kn010G3/L0003-k0 (antibody, V domains shown)
VH: B1 VH with T19K, E43Q, E54K, E62Q
VL: B1 VL with Q24R, A25I, E27Q, P29L, L42Q, S48A, Q50R, Y94G
notes: one-arm
In the case of B21, binding was put at a Kd of 4.01 nM.

B22: H0610-G1dh/none-Hi-Kn010G3/L0007-k0 (antibody, V domains shown)
VH: B1 VH with T19K, E43Q, E54K, E62Q
VL: B1 VL with Q24R, A25T, E27Q, P29L, L42Q, S48A, Q50R, Y94G
notes: one-arm
B22 gave a dissociation constant Kd of 4.39 nM.

B23: H0610-G1dh/none-Hi-Kn010G3/L0047-k0 (antibody, V domains shown)
VH: B1 VH with T19K, E43Q, E54K, E62Q
VL: B1 VL with Q24R, A25S, E27Q, P29L, S32W, L42Q, S48A, Q50R, Y94G
notes: one-arm
The molecule B23 yielded a Kd of 2.23 nM.

B24: GCH056-G1dh/none-Hi-Kn010G3/L0262-k0 (antibody, V domains shown)
VH: B1 VH with E62Q, K65E
VL: B1 VL with Q24R, A25S, E27Q, S28P, L42Q, S48A, Q50R, Y94A
notes: one-arm
B24 returned a dissociation constant Kd of 0.0119 nM.

B25: H0610-G1dh/none-Hi-Kn010G3/L0044-k0 (antibody, V domains shown)
VH: B1 VH with T19K, E43Q, E54K, E62Q
VL: B1 VL with Q24R, A25S, E27Q, P29L, S32P, L42Q, S48A, Q50R, Y94G
notes: one-arm
Regarding B25, the Kd was determined as 4.57 nM.

B26: H0610-G1dh/none-Hi-Kn010G3/L0043-k0 (antibody, V domains shown)
VH: B1 VH with T19K, E43Q, E54K, E62Q
VL: B1 VL with Q24R, A25S, E27Q, P29L, S32N, L42Q, S48A, Q50R, Y94G
notes: one-arm
Consider B26, for which the Kd came out at 5.14 nM.

B27: H0610-G1dh/none-Hi-Kn010G3/L0009-k0 (antibody, V domains shown)
VH: B1 VH with T19K, E43Q, E54K, E62Q
VL: B1 VL with Q24R, A25S, S26P, E27Q, P29L, L42Q, S48A, Q50R, Y94G
notes: one-arm
B27 displayed a Kd of 2.99 nM.

B28: GCH055-G1dh/none-Hi-Kn010G3/L0215-k0 (antibody, V domains shown)
VH: B1 VH with E62D
VL: B1 VL with Q24R, A25S, E27Q, S28P, L38I, L42Q, S48A, Q50R, Y94G
notes: one-arm
B28 came in with a dissociation constant Kd of 1.52 nM.

B29: H0610-G1dh/none-Hi-Kn010G3/L0002-k0 (antibody, V domains shown)
VH: B1 VH with T19K, E43Q, E54K, E62Q
VL: B1 VL with Q24R, E27Q, P29L, L42Q, S48A, Q50R, Y94G
notes: one-arm
On to B29, for which the Kd was 4.43 nM.

B30: H0610-G1dh/none-Hi-Kn010G3/L0039-k0 (antibody, V domains shown)
VH: B1 VH with T19K, E43Q, E54K, E62Q
VL: B1 VL with Q24R, A25S, E27Q, P29L, S32H, L42Q, S48A, Q50R, Y94G
notes: one-arm
For the molecule B30, the Kd came out at 3.41 nM.

B31: H0610-G1dh/none-Hi-Kn010G3/L0008-k0 (antibody, V domains shown)
VH: B1 VH with T19K, E43Q, E54K, E62Q
VL: B1 VL with Q24R, A25V, E27Q, P29L, L42Q, S48A, Q50R, Y94G
notes: one-arm
For B31, binding was characterised by a dissociation constant (Kd) of 3.3 nM.

B32: H0610-G1dh/none-Hi-Kn010G3/L0042-k0 (antibody, V domains shown)
VH: B1 VH with T19K, E43Q, E54K, E62Q
VL: B1 VL with Q24R, A25S, E27Q, P29L, S32M, L42Q, S48A, Q50R, Y94G
notes: one-arm
In turn, B32 showed a dissociation constant Kd of 4.27 nM.

B33: H0610-G1dh/none-Hi-Kn010G3/L0045-k0 (antibody, V domains shown)
VH: B1 VH with T19K, E43Q, E54K, E62Q
VL: B1 VL with Q24R, A25S, E27Q, P29L, S32Q, L42Q, S48A, Q50R, Y94G
notes: one-arm
Regarding B33, the Kd amounted to 4.66 nM.

These data come from patent publication US20250066503A1, “CELL INJURY INDUCING THERAPEUTIC DRUG FOR USE IN CANCER THERAPY” (CHUGAI SEIYAKU KABUSHIKI KAISHA, priority 2016, published 2025).
